The values that follow come from FireProtDB (doi:10.1110/ps.38602).

As usually defined, the Tm is the temperature at which the thermal transition is half complete.

B1: Ribonuclease HI wild type, P0A7Y4 (protein)
chain: MLKQVEIFTDGSCLGNPGPGGYGAILRYRGREKTFSAGYTRTTNNRMELMAAIVALEALKEHCEVILSTDSQYVRQGITQWIHNWKKRGWKTADKKPVKNVDLWQRLDAALGQHQIKWEWVKGHAGHPENERCDELARAAAMNPTLEDTGYQVEV
B2: Ribonuclease H wild type, P29253 (protein)
chain: MNPSPRKRVALFTDGACLGNPGPGGWAALLRFHAHEKLLSGGEACTTNNRMELKAAIEGLKALKEPCEVDLYTDSHYLKKAFTEGWLEGWRKRGWRTAEGKPVKNRDLWEALLLAMAPHRVRFHFVKGHTGHPENERVDREARRQAQSQAKTPCPPRAPTLFHEEA

The conditions of one data set: Escherichia coli (strain K12); pH 5.5; 25 °C; GdnHCl; CD; NaOAc 20 mM; KCl 50 mM; reversible: yes; whole UniProt chain shown.
Consider B1, for which the denaturant m value turned out to be 4.9 kcal/mol/M and the unfolding free energy amounted to 7.6 kcal/mol.

The data set is the same for the next values; noted with them: Escherichia coli (strain K12); pH 5.5; 25 °C; Urea; CD; NaOAc 20 mM; KCl 50 mM; reversible: yes; whole UniProt chain shown.
In the case of B1, the denaturant m value was 2.1 kcal/mol/M and the unfolding free energy was 9.7 kcal/mol.

Staying with this data set, now noted: Escherichia coli (strain K12); pH 5.5; Thermal; CD; NaOAc 20 mM; KCl 50 mM; reversible: yes; whole UniProt chain shown.
For B1, the Tm was 66 °C and the “heat capacity change of unfolding” value amounted to 2.7 kcal/mol/K.

The same data set, now with this note: Thermus thermophilus (strain ATCC 27634 / DSM 579 / HB8); pH 5.5; 25 °C; GdnHCl; CD; NaOAc 20 mM; KCl 50 mM; reversible: yes; whole UniProt chain shown.
In the case of B2, the denaturant m value is 4.4 kcal/mol/M and the unfolding free energy amounted to 12.2 kcal/mol.

The data set is the same for the next values; noted with them: Thermus thermophilus (strain ATCC 27634 / DSM 579 / HB8); pH 5.5; Thermal; CD; NaOAc 20 mM; KCl 50 mM; reversible: yes; whole UniProt chain shown.
In the case of B2, the Tm turned out to be 86 °C and the “heat capacity change of unfolding” value turned out to be 1.8 kcal/mol/K.
